The values below come from publication PMC3737541, “Structure-function analysis of the EF-hand protein centrin-2 for its intracellular localization and nucleotide excision repair” (Nucleic Acids Research, 2013).

In assay [1] the target is T1, FLAG-XPC/RAD23B-His complex (human, UniProt Q01831 1-940; P54727 1-409).
T1 sequence (looked up) 1: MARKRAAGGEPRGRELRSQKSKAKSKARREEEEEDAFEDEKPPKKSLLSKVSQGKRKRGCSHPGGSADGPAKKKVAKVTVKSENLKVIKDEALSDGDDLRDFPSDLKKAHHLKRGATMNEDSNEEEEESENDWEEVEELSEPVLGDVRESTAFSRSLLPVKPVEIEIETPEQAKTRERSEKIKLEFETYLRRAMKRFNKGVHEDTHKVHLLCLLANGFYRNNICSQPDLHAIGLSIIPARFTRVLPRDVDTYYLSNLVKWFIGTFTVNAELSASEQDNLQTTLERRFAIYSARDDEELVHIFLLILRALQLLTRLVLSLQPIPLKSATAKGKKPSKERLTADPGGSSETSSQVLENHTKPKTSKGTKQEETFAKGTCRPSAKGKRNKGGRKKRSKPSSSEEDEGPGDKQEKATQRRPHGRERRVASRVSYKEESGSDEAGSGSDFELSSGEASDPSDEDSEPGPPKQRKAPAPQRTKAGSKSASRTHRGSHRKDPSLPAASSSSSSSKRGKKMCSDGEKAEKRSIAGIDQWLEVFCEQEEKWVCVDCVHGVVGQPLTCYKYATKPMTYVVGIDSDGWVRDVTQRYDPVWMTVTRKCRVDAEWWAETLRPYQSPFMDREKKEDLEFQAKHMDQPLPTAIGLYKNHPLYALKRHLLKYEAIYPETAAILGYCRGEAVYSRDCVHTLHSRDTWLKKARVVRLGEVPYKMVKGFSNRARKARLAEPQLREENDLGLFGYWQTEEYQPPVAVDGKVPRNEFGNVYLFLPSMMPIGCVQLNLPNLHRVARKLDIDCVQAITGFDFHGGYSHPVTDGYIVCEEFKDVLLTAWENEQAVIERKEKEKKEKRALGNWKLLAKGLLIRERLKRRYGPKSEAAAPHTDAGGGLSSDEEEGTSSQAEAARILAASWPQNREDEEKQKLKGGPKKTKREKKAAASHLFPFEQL
T1 sequence (looked up) 2: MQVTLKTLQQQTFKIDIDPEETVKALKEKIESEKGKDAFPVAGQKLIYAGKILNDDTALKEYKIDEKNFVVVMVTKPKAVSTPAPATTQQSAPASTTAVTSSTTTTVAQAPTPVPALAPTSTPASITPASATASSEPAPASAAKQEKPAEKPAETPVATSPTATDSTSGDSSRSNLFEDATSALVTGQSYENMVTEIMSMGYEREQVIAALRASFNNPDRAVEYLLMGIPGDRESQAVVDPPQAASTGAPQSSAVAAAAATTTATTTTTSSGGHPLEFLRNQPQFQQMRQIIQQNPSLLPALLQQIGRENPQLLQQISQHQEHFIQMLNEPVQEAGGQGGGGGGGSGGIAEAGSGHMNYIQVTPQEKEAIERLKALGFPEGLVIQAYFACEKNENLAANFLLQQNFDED
The assay is described as follows: cell-based or functional assay.

In a further assay the target is T2, FLAG-XPA (human, UniProt P23025 1-273).
T2 construct: XPA protein, human; also called purified recombinant XPA
T2 sequence (P23025 whole entry): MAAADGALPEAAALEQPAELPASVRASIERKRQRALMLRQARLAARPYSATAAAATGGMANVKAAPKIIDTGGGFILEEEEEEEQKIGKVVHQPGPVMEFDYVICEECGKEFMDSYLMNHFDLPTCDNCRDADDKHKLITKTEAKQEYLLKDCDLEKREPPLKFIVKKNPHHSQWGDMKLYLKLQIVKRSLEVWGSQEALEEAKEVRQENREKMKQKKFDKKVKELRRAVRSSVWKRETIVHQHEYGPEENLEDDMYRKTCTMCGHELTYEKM
The assay is described as follows: pull-down; FLAG-XPA (0.5 µg) immobilised on anti-DDDDK-tag magnetic beads; centrin-2 in buffer B, on ice 1 h; elution with FLAG peptide; immunoblot; no XPC/RAD23B. To be noted: both partners purified. (In general: A western blot detects proteins with antibodies after separation by electrophoresis.)

Assay [2] addresses T1, FLAG-XPC/RAD23B-His complex. Nature of the assay: pull-down; purified GST-centrin-2 (WT, N or C) incubated with FLAG-XPC/RAD23B-His, pulled down with anti-FLAG antibody beads; immunoblot. To be noted: both partners purified.
For assay [3] the target is unchanged. The assay is described as follows: pull-down; FLAG-XPC/RAD23B-His immobilised on anti-FLAG magnetic beads, incubated with centrin-2 (WT or C domain, GST removed), extensive washing, elution with FLAG peptide; reconstituted heterotrimers. The following applies: both partners purified.

B1: centrin-2 (WT), detached from the GST tag (natural protein, human, UniProt P41208 1-172, looked up)
chain: MASNFKKANMASSSQRKRMSPKPELTEEQKQEIREAFDLFDADGTGTIDVKELKVAMRALGFEPKKEEIKKMISEIDKEGTGKMNFGDFLTVMTQKMSEKDTKEEILKAFKLFDDDETGKISFKNLKRVAKELGENLTDEELQEMIDEADRDGDGEVSEQEFLRIMKKTSLY
notes: centrin-2, human, wild type; also called WT centrin-2; full-length protein; source: E. coli BL21 (DE3), purified (GSTrap FF, HiTrap Phenyl FF), GST removed with PreScission protease; not shown: GST, N-terminal, cleaved
Turning to B1, the “EMSA: enhancement of the binding of XPC/RAD23B to a 180 bp DNA with a 6-4PP by centrin-2 (WT)” value in assay [1] was ~2 fold. Besides, the binding result with FLAG-XPA was “binds”.

B2: centrin-2 M4 mutant, recombinant (natural protein, human, UniProt P41208 1-172, looked up)
chain: MASNFKKANMASSSQRKRMSPKPELTEEQKQEIREAFDLFDADGTGTIDVKELKVAMRALGFEPKKEEIKKMISEIDKEGTGKMNFGDFLTVMTQKMSEKDTKEEILKAFKAADDDETGKISFKNLKRVAKEAGENLTDEELQEAIDEADRDGDGEVSEQEFLRIMKKTSLY
notes: centrin-2, human, point mutant M4 of the WT protein (intact N domain); also called M4 mutant of centrin-2; source: E. coli BL21 (DE3), purified (GSTrap FF, HiTrap Phenyl FF)
Consider B2, for which the binding result with FLAG-XPA is reported as “binds”.

B3: GST-centrin-2 C domain (domain or fragment, human, UniProt P41208 94-172, looked up)
chain: TQKMSEKDTKEEILKAFKLFDDDETGKISFKNLKRVAKELGENLTDEELQEMIDEADRDGDGEVSEQEFLRIMKKTSLY
notes: centrin-2, human, carboxyl-terminal (C) domain, residues 94-172; source: E. coli BL21 (DE3), purified (GSTrap FF, HiTrap Phenyl FF); not shown: GST, N-terminal, kept
In the case of B3, in assay [2], the binding result is listed as “binds”.

B4: centrin-2 C domain, detached from the GST tag (domain or fragment, human, UniProt P41208 94-172, looked up)
chain: TQKMSEKDTKEEILKAFKLFDDDETGKISFKNLKRVAKELGENLTDEELQEMIDEADRDGDGEVSEQEFLRIMKKTSLY
notes: centrin-2, human, carboxyl-terminal (C) domain, residues 94-172; also called the C domain alone; source: E. coli BL21 (DE3), purified (GSTrap FF, HiTrap Phenyl FF), GST removed with PreScission protease; not shown: GST, N-terminal, cleaved
As to B4, the binding result in assay [3] is on record as “binds”.
